Reference: patent US7264809B1, “Methods of inhibiting platelet activation and recruitment” (Immunex Corporation, priority 1998, dated 2007)

What was measured:
[1] = TLC assay for ADPase activity; type: biochemical
Description: (§1) Following growth in selective medium, CM from CHO cell cultures was analyzed for ATPase and ADPase activities. ADPase assays (Marcus et al., J. Clin. Invest. 88:1690, 1991) were primarily used in determining enzyme kinetics and pharmacokinetics. Test samples were incubated with 50 μM [^14C] ADP (NEN Life Science Products) in assay buffer (15 mM Tris, 134 mM NaCl, 5 mM glucose, pH 7.4, containing 10 μM Ap5A (P^1,P^5-di[adenosine-5′]pentaphosphate, 1 mM ouabain, 10 μM dipyridamole, and 3 mM CaCl2) in a total volume of 50 μl (5 min, 37° C.). Reactions were stopped by placement on ice and addition of 10 μl “stop solution” (160 mM disodium EDTA, pH 7.0, 17 mM ADP, 0.15 M NaCl) to block further metabolism of ADP. Nucleotides, nucleosides, and bases were separated by TLC using isobutanol/1-pentanol/ethylene glycol monoethyl ether/NH4OH/H2O (90:60:180:90:120). Radioactivity was quantified by radio TLC scanning (RTLC multiscanner; Packard, Meriden, Conn.). Results were calculated as averages of duplicate to quadruplicate measurements after subtraction of buffer blanks (consistently <1% of total radioactivity). Data were expressed as percentage of ADP metabolized or as pmol ADP metabolized per minute per μl CM. A unit of activity is the quantity of enzyme which will degrade 1 μmol of ADP in 1 min at 37° C. Identical assays were performed using ATP as a substrate in order to examine the kinetics of the ATPase activity of CD39.
(§2) Using the TLC assay system described in Example 12B, the ADPase activity of the membrane-bound HUVEC ecto-ADPase was determined at different pHs in buffers containing 100 mM bis-trispropane (Sigma, St. Louis, Mo.). […] Kinetic constants for CD39 metabolism of ATP and ADP were determined by measuring the initial rates of reaction as analyzed in the TLC system.

[2] = TLC assay for ATPase activity; type: biochemical
Description: as §1, §2

[3] = parameters: species or system Balb/c mice; details: mouse, in vivo, iv
Description: At various times after injection (5, 10, 30 min, 1, 2, 4, 8, 24 h), pairs of mice were bled by cardiac puncture and euthanized. Serum was prepared from each blood sample and frozen until assay. […] The data were fit using […], Monterey, Calif.). The best fit was derived using double exponential decay. Where indicated, specificity of enzyme activity was determined by incubating serum samples with anti-CD39 mAb-coated beads to remove CD39 prior to testing for ATPase activity.

[4] = system: platelets; assay: ADP-induced platelet aggregation after solCD39 bolus in pigs; type: in vivo, Yorkshire-Hampshire pigs; details: high dose solCD39
Description: (§3) Aspirin was administered orally on a daily basis. Placebo controls consisted of aspirin. Saline controls and solCD39 were administered as a single bolus. Time points were measured following this administration. Blood samples were obtained via an external jugular vein catheter. […] ADP-induced platelet aggregation was measured at specific time intervals following administration. The concentration of CD39 in serum as a function of time was measured using an ELISA assay.

[5] = Bleeding time and tolerability in pigs; type: in vivo, Yorkshire-Hampshire pigs
Description: as §3

[6] = system: platelets; assay: Ex vivo additive inhibition of platelet aggregation in patient platelet rich plasma; type: cell-based, human
[7] = system: murine platelets; assay: Ex vivo aggregation of murine platelets; type: in vivo, C57BL/6J mice; details: PRP 1 hour after soluble CD39 4 mg/kg or aspirin 5 mg/kg
Description: C57BL/6J mice (6-8 wk) were obtained from Jackson Laboratories (Bar Harbor, Me.). […] 80 μL of 3.8% trisodium citrate was added to each mL of blood. […] The PRP contained 400-700×10^3 platelets per μL. All experiments were completed within 2 hours of blood collection. PRP (200 μL) was preincubated, for 3 min. at 37° C., with 100 μL Tris-buffered saline buffer ([…], 5 mM glucose, pH 7.4) in an aggregometer cuvette (Lumiaggregometer; Chrono-Log, Havertown, Pa.), and the platelet agonists ADP, collagen, or sodium arachidonate were added at the final concentrations indicated.

[8] = Murine model of stroke (middle cerebral artery occlusion); type: in vivo, mice
Description: Anesthetized mice were maintained at 37±2° C. during and for 90 min following surgery. A midline neck incision was made and the right carotid artery exposed. Middle cerebral artery occlusion was accomplished by advancing a 13-mm heat-blunt tipped 6-0 nylon suture via an arteriotomy in the external carotid stump. The external carotid artery was cauterized to secure hemostasis, and arterial flow reestablished. […] Surgical staples were used for wound closure. […]

[9] = Bleeding time in mice; type: in vivo; details: aspirin 5 mg/kg; increasing doses of solCD39 (4, 8, 20 mg/kg)
Text: (*p<0.05, ^‡p<0.01, ^†p<0.001).
Hematological profiles, including erythrocyte parameters, platelet counts, leukocyte counts and differentials, and coagulation screening, were normal. […] Under those conditions, the defect was abolished and normal blood fluidity was restored by administration of soluble CD39.

[10] = administered three hours following stroke induction
[11] = prior to, or up to 3 h following, stroke

B1: solCD39: recombinant soluble human CD39, untagged: 12 mature huIL2 residues, three amino acid linker, sol CD39 (SEQ ID NO:7) (protein)
chain: MALWIDRMQLLSCIALSLALVTNSAPTSSSTKKTQLTSSTQNKALPENVKYGIVLDAGSSHTSLYIYKWPAEKENDTGVVHQVEECRVKGPGISKFVQKVNEIGIYLTDCMERAREVIPRSQHQETPVYLGATAGMRLLRMESEELADRVLDVVERSLSNYPFDFQGARIITGQEEGAYGWITINYLLGKFSQKTRWFSIVPYETNNQETFGALDLGGASTQVTFVPQNQTIESPDNALQFRLYGKDYNVYTHSFLCYGKDQALWQKLAKDIQVASNEILRDPCFHPGYKKVVNVSDLYKTPCTKRFEMTLPFQQFEIQGIGNYQQCHQSILELFNTSYCPYSQCAFNGIFLPPLQGDFGAFSAFYFVMKFLNLTSEKVSQEKVTEMMKKFCAQPWEEIKTSYAGVKEKYLSEYCFSGTYILSLLLQGYHFTADSWEHIHFIGKIQGSDAGWTLGYMLNLTNMIPAEQPLSTPLSHST
Vmax for ADP ([1]; 2×10^−9 M solCD39): 72 pmol/min
kcat (ADP) ([1]; 2×10^−9 M solCD39): 12 s⁻¹
specific activity for ADP ([1]; purified recombinant solCD39): 11 U/mg
Vmax for ATP ([2]; 2×10^−9 M solCD39): 26 pmol/min
kcat (ATP) ([2]; 2×10^−9 M solCD39): 4.33 s⁻¹
specific activity for ATP ([2]; purified recombinant solCD39): 4 U/mg
apyrase activity cleared from the circulation during distribution phase [3]: 55-65%
t1/2α (distribution phase), ADPase assay ([3]; 50 ug): 43 min
t1/2α (distribution phase), ATPase assay ([3]; 50 ug): 59 min
inhibition of platelet aggregation at two weeks [4]: 30%
anemia or thrombocytopenia ([5]; pig, in vivo): did not induce
tolerability ([5]; pigs, 72-670 μg/kg bolus): well tolerated
Platelet aggregation ([6]; SolCD39 10 μg/ml, ADP, Abciximab group): 0 ± 0 arbitrary units
Platelet aggregation ([6]; SolCD39 10 μg/ml, ADP, Aspirin group): 4 ± 2 arbitrary units
Platelet aggregation ([6]; SolCD39 10 μg/ml, ADP, Clopidogrel group): 5 ± 2 arbitrary units
Platelet aggregation ([6]; SolCD39 10 μg/ml, ADP, Placebo group): 0 ± 0 arbitrary units
Platelet aggregation ([6]; SolCD39 10 μg/ml, ADP, Ticlopidine group): 10 ± 2 arbitrary units
Platelet aggregation ([6]; SolCD39 10 μg/ml, Collagen, Abciximab group): 0 ± 0 arbitrary units
Platelet aggregation ([6]; SolCD39 10 μg/ml, Collagen, Aspirin group): 21 ± 4 arbitrary units
Platelet aggregation ([6]; SolCD39 10 μg/ml, Collagen, Clopidogrel group): 31 ± 9 arbitrary units
Platelet aggregation ([6]; SolCD39 10 μg/ml, Collagen, Placebo group): 75 ± 2 arbitrary units
Platelet aggregation ([6]; SolCD39 10 μg/ml, Collagen, Ticlopidine group): 48 ± 18 arbitrary units
Platelet aggregation ([6]; SolCD39 10 μg/ml, TRAP, Abciximab group): 22 ± 10 arbitrary units
Platelet aggregation ([6]; SolCD39 10 μg/ml, TRAP, Aspirin group): 38 ± 7 arbitrary units
Platelet aggregation ([6]; SolCD39 10 μg/ml, TRAP, Clopidogrel group): 35 ± 1 arbitrary units
Platelet aggregation ([6]; SolCD39 10 μg/ml, TRAP, Placebo group): 70 ± 3 arbitrary units
Platelet aggregation ([6]; SolCD39 10 μg/ml, TRAP, Ticlopidine group): 19 ± 6 arbitrary units
Platelet aggregation ([6]; SolCD39 100 μg/ml, ADP, Abciximab group): 0 ± 0 arbitrary units
Platelet aggregation ([6]; SolCD39 100 μg/ml, ADP, Aspirin group): 1 ± 0 arbitrary units
Platelet aggregation ([6]; SolCD39 100 μg/ml, ADP, Clopidogrel group): 0 ± 0 arbitrary units
Platelet aggregation ([6]; SolCD39 100 μg/ml, ADP, Placebo group): 0 ± 0 arbitrary units
Platelet aggregation ([6]; SolCD39 100 μg/ml, ADP, Ticlopidine group): 2 ± 2 arbitrary units
Platelet aggregation ([6]; SolCD39 100 μg/ml, Collagen, Abciximab group): 0 ± 0 arbitrary units
Platelet aggregation ([6]; SolCD39 100 μg/ml, Collagen, Aspirin group): 16 ± 4 arbitrary units
Platelet aggregation ([6]; SolCD39 100 μg/ml, Collagen, Clopidogrel group): 21 ± 6 arbitrary units
Platelet aggregation ([6]; SolCD39 100 μg/ml, Collagen, Placebo group): 57 ± 5 arbitrary units
Platelet aggregation ([6]; SolCD39 100 μg/ml, Collagen, Ticlopidine group): 37 ± 15 arbitrary units
Platelet aggregation ([6]; SolCD39 100 μg/ml, TRAP, Abciximab group): 22 ± 9 arbitrary units
Platelet aggregation ([6]; SolCD39 100 μg/ml, TRAP, Aspirin group): 26 ± 5 arbitrary units
Platelet aggregation ([6]; SolCD39 100 μg/ml, TRAP, Clopidogrel group): 23 ± 3 arbitrary units
Platelet aggregation ([6]; SolCD39 100 μg/ml, TRAP, Placebo group): 65 ± 4 arbitrary units
Platelet aggregation ([6]; SolCD39 100 μg/ml, TRAP, Ticlopidine group): 18 ± 7 arbitrary units
ex vivo platelet aggregation, collagen ([7]; 2.5 μg/ml collagen): attenuated
ex vivo platelet aggregation, ADP ([7]; 10 μM ADP): abrogated
ex vivo platelet aggregation, arachidonate ([7]; 0.1 mM sodium arachidonate): attenuated
fibrin accumulation in the ipsilateral hemisphere ([8]; 8 mg/kg, Western blot): decreased
postischemic cerebral perfusion / blood flow ([8]; 24 hours after stroke induction): improved
infarction volume [8, 10]: reduced
postischemic blood flow [8, 10]: restored
intracerebral hemorrhage ([8]; following stroke, spectrophotometric): no significant increase
cerebral infarct volume ([8]; preoperative administration, aspirin 5 mg/kg): dose-dependent diminution
platelet accumulation in the ipsilateral cerebral hemisphere ([8]; pretreated with 8 mg/kg i.v.): inhibited
mortality [8, 11]: reduced
neurological deficit [8, 11]: reduced
infarct volume in CD39−/− mice ([8]; reconstituted CD39−/− mice): markedly diminished
bleeding times [9]: markedly increased
